Data reported in patent US20180051287.

Columns and labels:
complement factor D (fD) [1] = target: complement factor D (fD) (UniProt P00746); experiment: inhibition; details: non-specific control oligo
complement factor D (fD) [2] = target: complement factor D (fD) (UniProt P00746); experiment: flow; details: 2'-F G, 2'-OMe A, C, U, apparent Kd of pool, SB1T, 37 C
casein = experiment: FP filter; details: specificity control; 100 nM DNA, 20 uM casein
complement factor D (fD) [3] = target: complement factor D (fD) (UniProt P00746); experiment: FP filter; details: 100 nM DNA, 5 uM fD

Chain of complement factor D (fD) (P00746 26-253): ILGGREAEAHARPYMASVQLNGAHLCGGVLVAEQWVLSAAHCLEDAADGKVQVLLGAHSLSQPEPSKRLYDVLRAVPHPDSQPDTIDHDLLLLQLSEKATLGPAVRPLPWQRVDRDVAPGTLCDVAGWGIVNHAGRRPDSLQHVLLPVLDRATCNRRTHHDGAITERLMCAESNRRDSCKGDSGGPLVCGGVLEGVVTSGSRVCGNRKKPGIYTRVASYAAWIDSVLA

C8 non-specific control oligo
IC50 (complement factor D (fD) [1]; alternative-pathway hemolysis): > 160 nM | activity (complement factor D (fD) [1]; fD esterase assay): 105 % activity

GGGAGUGUGUACGAGGCAUUAGGCCGCCNNNNNNNNNNNNNNNNNNNNNNNNNNNNNNGGCGGCUUUGAUACUUGAUCGCCCUAGAAGC [N30S selection round 6 pool]
Kd (complement factor D (fD) [2]): 34.4 nM

GGGAGUGUGUACGAGGCAUUAGGCCGCCNNNNNNNNNNNNNNNNNNNNNNNNNNNNNNGGCGGCUUUGAUACUUGAUCGCCCUAGAAGC [N30S selection round 7 pool]
Kd (complement factor D (fD) [2]; competed by anti-fD Fab AFD): 45.1 nM

GGGAGUGUGUACGAGGCAUUAGGCCGCCNNNNNNNNNNNNNNNNNNNNNNNNNNNNNNGGCGGCUUUGAUACUUGAUCGCCCUAGAAGC [N30S selection round 8 pool]
Kd (complement factor D (fD) [2]; competed by anti-fD Fab AFD): 8.8 nM

GTGACGACTGACATATCTGCAAAAGTTAGATTGACATGGTATGCACCGTCTGAGGTTGGTCGTAGTTGAGTCTGAGTGCT [Aptamer 12 (rank 9)]
binding signal (casein): 0.6 % bound

GTGACGACTGACATATCTGCCCTATAGGGGTGTGGGCGAGGGGTGGGTGGTAGGGCGGCTCGTAGTTGAGTCTGAGTGCT [Aptamer 10 (rank 7)]
binding signal (casein): 0.2 % bound

GTGACGACTGACATATCTGCGGCGGTTGGGGTCGAAGGGCGAGGGGTGGGAGGTCGCCGTAGTTGAGTCTGAGTGCT [Aptamer 7 (rank 4)]
binding signal (casein): 0.1 % bound

GTGACGACTGACATATCTGCGGGCGTCTGAGCGCATGGATGACCCACCGACAGATTGCGGCGTAGTTGAGTCTGAGTGCT [Aptamer 27 (rank 24)]
binding signal (casein): 0.6 % bound

GTGACGACTGACATATCTGCGTTTGGGGTTGGGGCCTGGGAGTTTGGGGAGCAGAAAGGACGTAGTTGAGTCTGAGTGCT [Aptamer 5 (rank 2)]
binding signal (casein): 0.5 % bound

GTGACGACTGACATATCTGCNNNNNNNNNNNNNNNNNNNNNNNNNNNNNNNNNNNNNNNNCGTAGTTGAGTCTGAGTGCT [DNA selection round 9 pool]
binding signal (complement factor D (fD) [3]; round 9 pool): 14.6 % bound

GTGACGACTGACATATCTGCNNNNNNNNNNNNNNNNNNNNNNNNNNNNNNNNNNNNNNNNCGTAGTTGAGTCTGAGTGCT [naive N40 DNA library]
binding signal (casein): 0.5 % bound | binding signal (complement factor D (fD) [3]; naive library background): 3.6 % bound | binding signal (complement factor D (fD) [3]; round 0 library): 0.88 % bound

GTGACGACTGACATATCTGCTATTTTGGGGCCTGGGTGTTGGGGATTGGGGACTATGTGTCGTAGTTGAGTCTGAGTGCT [Aptamer 8 (rank 5)]
binding signal (casein): 0.3 % bound

GTGACGACTGACATATCTGCTCCGAGGTTATTGGGGTTGGGGCCTGGGCGATTGGGGCCTCGTAGTTGAGTCTGAGTGCT [Aptamer 4 (rank 1)]
binding signal (casein): 0.5 % bound

GTGACGACTGACATATCTGCTGCTTCCAGCGGTCATGATATGCACTGTCTGAAGCTCGGTCGTAGTTGAGTCTGAGTGCT [Aptamer 15 (rank 12)]
binding signal (casein): 0.2 % bound
